# Assay results taken from patent US20100180464A1, “Cores and microcapsules suitable for parenteral administration as well as process for their manufacture” (STRATOSPHERE PHARMA AB, priority 2007, published 2010).
# Key:
# Format in all cases: physicochemical
# [1] = Western blotting for dimer content
# Experimental: (§1) Cores suitable for air suspension coating and containing either human growth hormone (hGH) or erythropoietin (EPO) were prepared by essentially according to Example 1 using carbon dioxide for atomisation but with ethanol or ethanol containing solid carbon dioxide as the cold medium. For hGH the composition contained sodium hyaluronate (1%, about 4.1 g), diluent particles (rice starch, Sigma 57260, 1.83 g) and hGH (217 mg) and for EPO sodium hyaluronate (about 3.4), diluent particles (about 1.48 g) and EPO (11 mg). There was substantial stirring in the cold medium in the presence of solid carbon dioxide and little, if any, backflow of gas. The cold medium was removed by filtration and the cores dried using air at room temperature and atmospheric pressure. Cores suitable for air suspension coating were formed containing hGH (624 mg) and EPO (468 mg). […] No increase in the content of dimer or polymer forms of hGH were observed by HPLC size exclusion chromatography (SEC-HPLC, TSK2000 SWx1, Tosoh Corporation) according to Reslow et al (Sustained release of human growth hormone (hGH) from PLG-coated starch microspheres. Drug Delivery Systems and Sciences, 2002, 2,1 103-109).
# [2] = Electrophoresis (SDS-PAGE 12 and 18%) with silver staining of proteins after encapsulation in cores; details: cores with sodium hyaluronate and rice starch diluent particles; carbon dioxide atomisation; cold medium ethanol or ethanol containing solid carbon dioxide; dried with air at room temperature
# Experimental: as §1
# [3] = HPLC size exclusion chromatography (SEC-HPLC, TSK2000 SWx1) for dimer or polymer forms; details: cores prepared per Example 10
# Experimental: as §1
Substance,increase in dimer content ([1]; absence of carbon dioxide in the cold medium (ethanol)),increase in dimer content ([1]; carbon dioxide present in the cold medium (ethanol)),degradation products detected by electrophoresis [2],increase in the content of dimer or polymer forms [3]
erythropoietin [EPO],clearly higher increase,slight increase,No degradation products,–
human growth hormone [hGH],–,–,No degradation products,No increase
